Assay [1] addresses SARS-CoV-2 N protein truncation NΔN247, Myc-tagged (SARS-CoV-2) (UniProt P0DTC9). The assay can be described thus: cross-linking.
Assay [2] addresses SARS-CoV-2 N protein truncation NΔN180, Myc-tagged (SARS-CoV-2) (UniProt P0DTC9). The assay can be described thus: cross-linking.

What is called stoichiometry N is the number of molecules, sites or subunits per partner or assembly. Regarding “SARS-CoV-2 N protein truncation NΔN247, Myc-tagged (from UniProt P0DTC9 248-419) (domain or fragment)”, the stoichiometry N in assay [1] stood at 2.
As for “SARS-CoV-2 N protein truncation NΔN180, Myc-tagged (from UniProt P0DTC9 181-419) (domain or fragment)”, the stoichiometry N in assay [2] was 2.

The values above are taken from paper PMC11575404.
